{"source": "the Immune Epitope Database (IEDB)", "note": "pKd: −log10 of the molar value.", "data": [{"target": "HLA-A*02:01", "test": "IEDB peptide-MHC binding, purified MHC/competitive/radioactivity; filed as Kd, often an IC50 or EC50 that approximates it; ≥ and ≤ were set here for values at or beyond the usual limits of such assays", "conditions": "source organism: Homo sapiens", "values": [{"sequence": "YALTVVWLL", "pKd": 6.92}, {"sequence": "ALTGTEKLI", "pKd": "≤ 4.30"}, {"sequence": "SLLTFMIAA", "pKd": 8.03}, {"sequence": "IAATYNFAV", "pKd": 7.03}, {"sequence": "FLPRHRDTGIL", "pKd": "≤ 4.30"}, {"sequence": "WLLVFACSA", "pKd": "≤ 4.30"}, {"sequence": "SLCADARMYGV", "pKd": 6.45}, {"sequence": "YALTVVWLLV", "pKd": 6.18}, {"sequence": "FLYGALLL", "pKd": 6.84}, {"sequence": "VLPWIAFPGKV", "pKd": 5.89}, {"sequence": "QMTFHLFI", "pKd": 5.73}, {"sequence": "GLLECCARCLV", "pKd": 7.02}, {"sequence": "TLVSLLTFMI", "pKd": 5.58}, {"sequence": "FMIAATYNFAV", "pKd": 8.00}, {"sequence": "ALTVVWLL", "pKd": 5.15}, {"sequence": "FLPRHRDTGI", "pKd": "≤ 5.30"}, {"sequence": "CLVGAPFASLC", "pKd": 5.20}, {"sequence": "GLCFFGVAL", "pKd": 5.38}, {"sequence": "VVHFFKNIV", "pKd": "≤ 4.30"}, {"sequence": "TLSKIFKL", "pKd": 5.62}, {"sequence": "WLGHPDKFV", "pKd": "≤ 4.30"}, {"sequence": "FLYGALLLA", "pKd": 8.59}, {"sequence": "LVFACSAVPV", "pKd": 5.79}, {"sequence": "WLLVFACSAV", "pKd": 5.87}, {"sequence": "FACSAVPVYI", "pKd": 6.11}, {"sequence": "RMYGVLPWI", "pKd": 7.54}, {"sequence": "WLGHPDKFVGI", "pKd": "≤ 4.60"}, {"sequence": "KVCGSNLLSI", "pKd": 5.34}, {"sequence": "LLVFACSAVPV", "pKd": 6.00}, {"sequence": "QMTFHLFIA", "pKd": 5.78}, {"sequence": "HLFIAAFV", "pKd": 5.96}, {"sequence": "ALTGTEKL", "pKd": "≤ 4.30"}, {"sequence": "VIHAFQYVI", "pKd": 5.91}, {"sequence": "LVLFACSAV", "pKd": 6.34}, {"sequence": "LVSLLTFMI", "pKd": 5.72}, {"sequence": "SLSRFSWGA", "pKd": 6.04}]}]}
